Publication PMC12477886

Molecular target: SARS-CoV-2 WA1/2020 S2 protein (stabilized prefusion spike S2 trimer) (SARS-CoV-2 (USA-WA1/2020)) (UniProt P0DTC2)
Assay: cryo-EM structure

Substance: SARS-CoV-2 WA1/2020 S2 protein (stabilized prefusion spike S2 trimer) (from UniProt P0DTC2) (domain or fragment)
- stoichiometry N: 3
